Measurements from patent US20240383984A1 (Genentech, published 2024).

Experiments:
[1] = target: T1, human FcRH5 protein fragment (soluble) (human, UniProt Q96RD9 16-851); assay: SPR (BIACORE), TDB captured as ligand, Hu FcRH5 as analyte, 25 °C, 1:1 binding model
T1 construct: whole entry named; also called soluble human FcRH5; Human FcRH5 (BIACORE analyte)
T1 sequence: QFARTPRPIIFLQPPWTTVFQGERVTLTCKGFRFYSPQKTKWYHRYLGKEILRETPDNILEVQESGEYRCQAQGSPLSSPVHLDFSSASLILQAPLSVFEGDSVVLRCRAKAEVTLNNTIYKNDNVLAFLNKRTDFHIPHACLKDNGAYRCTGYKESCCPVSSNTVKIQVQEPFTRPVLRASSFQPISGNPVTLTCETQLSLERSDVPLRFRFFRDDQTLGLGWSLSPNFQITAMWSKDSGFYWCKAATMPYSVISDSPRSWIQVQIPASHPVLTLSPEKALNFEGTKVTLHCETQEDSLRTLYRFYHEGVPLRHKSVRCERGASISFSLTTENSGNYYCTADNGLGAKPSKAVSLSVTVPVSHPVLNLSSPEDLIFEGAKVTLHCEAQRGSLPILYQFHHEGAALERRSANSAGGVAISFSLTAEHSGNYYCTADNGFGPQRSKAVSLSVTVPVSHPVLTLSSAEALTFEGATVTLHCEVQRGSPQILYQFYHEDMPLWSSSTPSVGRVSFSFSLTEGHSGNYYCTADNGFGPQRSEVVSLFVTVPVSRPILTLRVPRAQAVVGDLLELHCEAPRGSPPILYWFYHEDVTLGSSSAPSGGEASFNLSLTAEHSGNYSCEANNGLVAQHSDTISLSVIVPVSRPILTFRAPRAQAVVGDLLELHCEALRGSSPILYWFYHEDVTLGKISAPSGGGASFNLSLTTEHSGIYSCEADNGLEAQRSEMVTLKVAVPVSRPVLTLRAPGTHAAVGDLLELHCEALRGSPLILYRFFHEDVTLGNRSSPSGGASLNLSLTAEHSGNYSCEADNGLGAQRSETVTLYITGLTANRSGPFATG

[2] = target: T2, human FcRH1 (full-length, on SVT2 cells) (human, UniProt Q96LA6 17-429); assay: flow cytometry on SVT2-FcRH1 cells, PE-labelled secondary
T2 construct: whole, on cells; also called SVT2-FcRH1
T2 sequence (looked up): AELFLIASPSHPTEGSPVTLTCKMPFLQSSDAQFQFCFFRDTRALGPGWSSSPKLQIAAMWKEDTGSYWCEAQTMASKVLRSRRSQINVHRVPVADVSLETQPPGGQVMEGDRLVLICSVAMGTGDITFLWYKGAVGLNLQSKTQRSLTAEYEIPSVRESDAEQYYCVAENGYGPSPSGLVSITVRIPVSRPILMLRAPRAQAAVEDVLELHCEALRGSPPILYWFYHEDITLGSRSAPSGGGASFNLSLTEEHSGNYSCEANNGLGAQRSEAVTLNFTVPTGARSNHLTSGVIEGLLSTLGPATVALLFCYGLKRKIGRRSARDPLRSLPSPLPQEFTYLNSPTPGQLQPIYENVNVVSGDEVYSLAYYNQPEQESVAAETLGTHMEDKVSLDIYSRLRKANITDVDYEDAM
Protocol: Human FcRH5, cyno FcRH5, human FcRH1, FcRH2, FcRH3, and FcRH4 transfected mouse SVT2 cells were used to test binding and cross-reactivity of FcRH5 TDBs. The method was carried out as follows. Cultured SVT2 cells were lifted using non-enzyme cell dissociation buffer (Sigma, #C5914). 1×10⁵ cells were suspended in 100 μL and incubated with FcRH5 TDBs at 3 μg/ml. […] Cells were washed twice with FACS buffer before flow cytometry analysis was carried out on a FACSCalibur.

[3] = target: T1, human FcRH5 protein fragment (soluble); assay: BIACORE
[4] = target: T3, cynomolgus FcRH5 protein fragment (soluble) (cynomolgus monkey); assay: BIACORE
T3 construct: whole entry named; also called Cyno FcRH5 (BIACORE analyte)
T3 chain: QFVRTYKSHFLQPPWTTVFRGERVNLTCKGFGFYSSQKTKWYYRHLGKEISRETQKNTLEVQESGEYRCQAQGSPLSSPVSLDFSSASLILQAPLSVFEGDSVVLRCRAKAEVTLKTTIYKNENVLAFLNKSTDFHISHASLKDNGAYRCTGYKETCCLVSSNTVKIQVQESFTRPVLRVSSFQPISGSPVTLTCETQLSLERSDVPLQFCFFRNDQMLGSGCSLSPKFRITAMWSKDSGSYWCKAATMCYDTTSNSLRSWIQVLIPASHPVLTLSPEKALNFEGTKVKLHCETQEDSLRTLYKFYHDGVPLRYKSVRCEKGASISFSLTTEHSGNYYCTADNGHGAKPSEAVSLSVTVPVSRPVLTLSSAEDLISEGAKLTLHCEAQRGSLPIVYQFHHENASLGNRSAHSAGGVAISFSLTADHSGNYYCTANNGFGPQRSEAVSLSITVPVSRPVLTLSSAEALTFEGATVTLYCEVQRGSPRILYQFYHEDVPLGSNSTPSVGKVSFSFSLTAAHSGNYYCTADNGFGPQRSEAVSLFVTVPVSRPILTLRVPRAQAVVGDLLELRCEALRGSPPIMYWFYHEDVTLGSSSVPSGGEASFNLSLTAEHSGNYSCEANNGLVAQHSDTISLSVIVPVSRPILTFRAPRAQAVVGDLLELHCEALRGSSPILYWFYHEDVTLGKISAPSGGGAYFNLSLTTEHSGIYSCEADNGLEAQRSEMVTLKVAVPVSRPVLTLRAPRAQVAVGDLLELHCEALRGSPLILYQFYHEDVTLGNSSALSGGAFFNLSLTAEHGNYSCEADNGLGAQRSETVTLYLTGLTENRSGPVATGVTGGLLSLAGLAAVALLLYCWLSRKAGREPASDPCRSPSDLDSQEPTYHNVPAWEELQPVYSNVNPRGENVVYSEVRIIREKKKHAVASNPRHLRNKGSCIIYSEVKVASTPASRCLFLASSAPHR

Kd [1]: 2.35 nM | koff [1]: 0.00104 s⁻¹ | kon [1]: 441000 M⁻¹ s⁻¹ | binding result [2]: no binding | Kd [3]: 2.1 nM | Kd [4]: 7.8 nM
B1: 1G7.v85/38E4.v1 TDB (bispecific antibody, V domains shown)
VH 1: EVQLVESGPGLVKPSETLSLTCTVSGFSLTRFGVHWVRQPPGKGLEWLGVIWRGGSTDYNAAFVSRLTISKDNSKNQVSLKLSSVTAADTAVYYCSNHYYGSSDYALDNWGQGTLVTVSS
VL 1: DIQMTQSPSSLSASVGDRVTITCKASQDVRNLVVWFQQKPGKAPKLLIYSGSYRYSGVPSRFSGSGSGTDFTLTISSLQPEDFATYYCQQHYSPPYTFGQGTKVEIK
VH 2: EVQLVQSGAEVKKPGASVKVSCKASGFTFTSYYIHWVRQAPGQGLEWIGWIYPENDNTKYNEKFKDRVTITADTSTSTAYLELSSLRSEDTAVYYCARDGYSRYYFDYWGQGTLVTVSS
VL 2: DIVMTQSPDSLAVSLGERATINCKSSQSLLNSRTRKNYLAWYQQKPGQSPKLLIYWTSTRKSGVPDRFSGSGSGTDFTLTISSLQAEDVAVYYCKQSFILRTFGQGTKVEIK
notes: knob-into-hole TDB; also called 1G7.v85 TDB; 1G7.v85 (TDB format)
